Test results from patent US20220411504A1.

Biological target: Human CD3 epsilon (CD3ε) of the T cell receptor complex on cells (human) (UniProt P07766)
Assay: flow cytometry on Jurkat cells, 10 nM antibody

Human CD3 epsilon (CD3ε) of the T cell receptor complex on cells (human), sequence (P07766 23-207 limits assumed, one chain of several): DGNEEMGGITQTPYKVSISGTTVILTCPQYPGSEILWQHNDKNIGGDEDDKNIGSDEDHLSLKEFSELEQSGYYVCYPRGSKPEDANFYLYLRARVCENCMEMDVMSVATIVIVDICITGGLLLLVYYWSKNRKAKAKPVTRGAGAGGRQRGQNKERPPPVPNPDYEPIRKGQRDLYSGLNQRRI

MFI (arbitrary units): 89200
Substance: UCHT1 (antibody)
